Reference: the supplement of paper PMC10065799, “High-throughput profiling of sequence recognition by tyrosine kinases and SH2 domains using bacterial peptide display” (eLife, 2023)

Key:
AncSZ = assay: phosphorylation enrichment, bacterial display (enrichment ratio); higher = better substrate or ligand; peptides without Tyr show the background
EPHB1 = EPHB1 (UniProt P54762); assay: as above
EPHB2 = EPHB2 (UniProt P29323); assay: as above
FGFR1 = FGFR1 (UniProt P11362); assay: as above
FGFR3 = FGFR3 (UniProt P22607); assay: as above
Fer (mouse) = assay: as above
Fes = Fes (UniProt P07332); assay: as above
Fyn = Fyn (UniProt P06241); assay: as above
Hck = Hck (UniProt P08631); assay: as above
Jak2 = Jak2 (UniProt O60674); assay: as above
MERTK = MERTK (UniProt Q12866); assay: as above
c-Abl (mouse) = assay: as above
c-Src = assay: as above
Grb2 SH2 = Grb2 SH2 (UniProt P62993); assay: SH2 binding enrichment of the phosphorylated peptide, bacterial display (enrichment ratio); higher = better substrate or ligand; peptides without Tyr show the background
SHP2-C SH2 = assay: as above
c-Src SH2 = assay: as above
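Wherever SH2 binding enrichment of the phosphorylated peptide, bacterial display is given: peptide library displayed on the E. coli surface as eCPX fusions, selected cells deep-sequenced, score is each peptide's frequency after selection divided by its frequency in the input.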
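Wherever phosphorylation enrichment, bacterial display is given: 11-residue human phosphosite peptides and single-mutation variants displayed on the E. coli surface, counted by deep sequencing, each peptide's frequency after selection divided by its frequency in the unselected input library; frequency after pTyr selection over input frequency; kinase dosed for 20-30% of maximal phosphorylation in three min.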

Fes, sequence (P07332 whole entry, looked up): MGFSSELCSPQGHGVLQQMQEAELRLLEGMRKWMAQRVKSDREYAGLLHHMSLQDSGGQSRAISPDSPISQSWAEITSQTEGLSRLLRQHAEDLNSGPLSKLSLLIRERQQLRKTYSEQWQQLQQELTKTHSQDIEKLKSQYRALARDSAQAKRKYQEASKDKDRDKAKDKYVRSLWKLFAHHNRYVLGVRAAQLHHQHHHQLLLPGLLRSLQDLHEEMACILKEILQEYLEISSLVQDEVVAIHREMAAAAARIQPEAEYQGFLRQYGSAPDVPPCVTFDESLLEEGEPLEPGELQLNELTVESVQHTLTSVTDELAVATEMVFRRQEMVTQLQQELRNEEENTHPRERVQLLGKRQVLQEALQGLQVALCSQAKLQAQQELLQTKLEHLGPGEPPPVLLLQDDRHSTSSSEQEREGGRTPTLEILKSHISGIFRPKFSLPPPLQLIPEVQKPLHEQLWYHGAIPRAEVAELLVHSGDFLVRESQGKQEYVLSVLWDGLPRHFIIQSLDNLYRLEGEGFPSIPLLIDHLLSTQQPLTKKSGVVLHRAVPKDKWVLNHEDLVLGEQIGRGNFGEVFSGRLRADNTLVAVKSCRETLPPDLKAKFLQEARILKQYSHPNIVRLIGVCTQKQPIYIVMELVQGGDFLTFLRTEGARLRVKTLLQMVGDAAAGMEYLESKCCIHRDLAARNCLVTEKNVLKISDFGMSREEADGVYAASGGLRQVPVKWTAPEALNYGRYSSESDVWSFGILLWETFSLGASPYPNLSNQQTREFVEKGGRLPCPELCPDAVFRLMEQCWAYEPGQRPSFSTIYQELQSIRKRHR
Jak2, sequence (O60674 whole entry, looked up): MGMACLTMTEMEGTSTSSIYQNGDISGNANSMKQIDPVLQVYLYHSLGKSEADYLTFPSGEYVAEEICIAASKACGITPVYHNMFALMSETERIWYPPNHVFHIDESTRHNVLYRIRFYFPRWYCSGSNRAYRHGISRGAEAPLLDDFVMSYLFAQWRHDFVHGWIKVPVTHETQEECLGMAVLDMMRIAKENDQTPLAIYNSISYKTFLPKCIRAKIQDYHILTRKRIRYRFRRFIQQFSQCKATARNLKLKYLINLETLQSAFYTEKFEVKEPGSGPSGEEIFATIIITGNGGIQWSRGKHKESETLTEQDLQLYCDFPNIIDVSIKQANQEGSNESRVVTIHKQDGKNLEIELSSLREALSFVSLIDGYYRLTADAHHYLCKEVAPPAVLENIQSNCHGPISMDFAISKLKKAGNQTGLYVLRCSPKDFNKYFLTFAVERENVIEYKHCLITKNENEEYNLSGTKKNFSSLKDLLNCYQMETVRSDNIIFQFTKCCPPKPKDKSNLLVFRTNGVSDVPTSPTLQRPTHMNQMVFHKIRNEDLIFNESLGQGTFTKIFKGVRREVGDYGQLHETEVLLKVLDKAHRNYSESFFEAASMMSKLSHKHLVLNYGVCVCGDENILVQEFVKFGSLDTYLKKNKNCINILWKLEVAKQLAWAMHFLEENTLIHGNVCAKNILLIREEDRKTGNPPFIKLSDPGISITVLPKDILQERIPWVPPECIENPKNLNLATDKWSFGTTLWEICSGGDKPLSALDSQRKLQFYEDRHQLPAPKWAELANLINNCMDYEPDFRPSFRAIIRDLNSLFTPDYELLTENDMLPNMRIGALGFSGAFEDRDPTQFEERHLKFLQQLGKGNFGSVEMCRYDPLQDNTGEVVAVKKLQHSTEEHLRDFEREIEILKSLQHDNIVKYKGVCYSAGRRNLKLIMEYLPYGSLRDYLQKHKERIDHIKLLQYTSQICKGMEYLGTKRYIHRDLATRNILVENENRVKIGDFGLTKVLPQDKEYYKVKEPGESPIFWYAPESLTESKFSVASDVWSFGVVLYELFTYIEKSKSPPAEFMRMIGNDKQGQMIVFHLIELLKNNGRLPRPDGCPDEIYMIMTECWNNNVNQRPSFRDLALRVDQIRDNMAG
EPHB2, sequence (P29323 whole entry, looked up): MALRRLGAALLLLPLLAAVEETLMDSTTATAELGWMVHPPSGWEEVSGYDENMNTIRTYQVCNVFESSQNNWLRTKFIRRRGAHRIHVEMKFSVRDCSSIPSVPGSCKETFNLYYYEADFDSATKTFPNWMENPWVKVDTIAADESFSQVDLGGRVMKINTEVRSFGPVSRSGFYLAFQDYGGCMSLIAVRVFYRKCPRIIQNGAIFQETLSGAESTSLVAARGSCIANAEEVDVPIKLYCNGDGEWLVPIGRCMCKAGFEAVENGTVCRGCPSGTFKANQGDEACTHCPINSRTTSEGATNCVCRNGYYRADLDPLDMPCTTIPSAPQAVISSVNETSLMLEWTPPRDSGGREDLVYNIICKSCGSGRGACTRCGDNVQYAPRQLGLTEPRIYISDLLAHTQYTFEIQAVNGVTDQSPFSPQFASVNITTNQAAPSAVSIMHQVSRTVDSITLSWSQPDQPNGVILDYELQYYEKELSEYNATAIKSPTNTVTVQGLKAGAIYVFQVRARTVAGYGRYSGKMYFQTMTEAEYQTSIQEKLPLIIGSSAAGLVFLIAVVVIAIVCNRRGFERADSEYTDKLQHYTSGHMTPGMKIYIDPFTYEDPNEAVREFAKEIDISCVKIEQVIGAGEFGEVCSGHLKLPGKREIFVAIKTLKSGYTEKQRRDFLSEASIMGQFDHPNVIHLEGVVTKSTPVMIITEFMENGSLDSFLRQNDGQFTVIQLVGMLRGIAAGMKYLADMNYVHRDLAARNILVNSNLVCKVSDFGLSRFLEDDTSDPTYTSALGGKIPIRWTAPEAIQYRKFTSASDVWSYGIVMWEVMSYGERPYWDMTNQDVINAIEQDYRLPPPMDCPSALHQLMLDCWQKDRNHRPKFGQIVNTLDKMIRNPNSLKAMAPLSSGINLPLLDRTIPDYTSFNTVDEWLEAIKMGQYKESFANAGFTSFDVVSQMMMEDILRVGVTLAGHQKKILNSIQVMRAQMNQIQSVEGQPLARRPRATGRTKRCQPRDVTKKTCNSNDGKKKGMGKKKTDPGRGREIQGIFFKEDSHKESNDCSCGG
MERTK, sequence (Q12866 whole entry, looked up): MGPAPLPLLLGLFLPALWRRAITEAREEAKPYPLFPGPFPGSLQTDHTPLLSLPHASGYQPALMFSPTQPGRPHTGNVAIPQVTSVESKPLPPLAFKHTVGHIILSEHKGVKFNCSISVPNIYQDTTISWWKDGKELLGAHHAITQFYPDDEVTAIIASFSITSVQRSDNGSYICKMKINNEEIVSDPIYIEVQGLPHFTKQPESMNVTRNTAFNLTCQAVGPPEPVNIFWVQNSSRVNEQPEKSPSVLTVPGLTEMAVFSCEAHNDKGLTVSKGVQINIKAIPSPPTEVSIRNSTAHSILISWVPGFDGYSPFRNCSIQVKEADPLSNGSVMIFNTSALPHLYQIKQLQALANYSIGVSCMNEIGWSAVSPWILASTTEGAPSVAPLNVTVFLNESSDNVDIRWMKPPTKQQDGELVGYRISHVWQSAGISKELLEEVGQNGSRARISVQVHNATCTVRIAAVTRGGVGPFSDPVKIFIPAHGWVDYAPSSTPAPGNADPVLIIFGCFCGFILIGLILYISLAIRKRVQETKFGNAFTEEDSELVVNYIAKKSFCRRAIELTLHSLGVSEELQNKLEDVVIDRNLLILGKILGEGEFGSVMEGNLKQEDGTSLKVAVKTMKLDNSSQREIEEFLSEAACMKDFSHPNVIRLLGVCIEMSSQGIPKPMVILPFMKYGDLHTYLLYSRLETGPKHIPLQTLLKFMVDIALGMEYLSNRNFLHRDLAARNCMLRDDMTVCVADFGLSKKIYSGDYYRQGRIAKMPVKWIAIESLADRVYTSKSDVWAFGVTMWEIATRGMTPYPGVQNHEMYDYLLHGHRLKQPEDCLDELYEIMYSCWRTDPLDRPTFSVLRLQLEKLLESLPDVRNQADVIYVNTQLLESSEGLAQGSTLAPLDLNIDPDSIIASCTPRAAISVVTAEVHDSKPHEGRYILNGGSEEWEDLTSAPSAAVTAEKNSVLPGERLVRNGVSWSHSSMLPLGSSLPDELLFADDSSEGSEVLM
FGFR3, sequence (P22607 whole entry, looked up): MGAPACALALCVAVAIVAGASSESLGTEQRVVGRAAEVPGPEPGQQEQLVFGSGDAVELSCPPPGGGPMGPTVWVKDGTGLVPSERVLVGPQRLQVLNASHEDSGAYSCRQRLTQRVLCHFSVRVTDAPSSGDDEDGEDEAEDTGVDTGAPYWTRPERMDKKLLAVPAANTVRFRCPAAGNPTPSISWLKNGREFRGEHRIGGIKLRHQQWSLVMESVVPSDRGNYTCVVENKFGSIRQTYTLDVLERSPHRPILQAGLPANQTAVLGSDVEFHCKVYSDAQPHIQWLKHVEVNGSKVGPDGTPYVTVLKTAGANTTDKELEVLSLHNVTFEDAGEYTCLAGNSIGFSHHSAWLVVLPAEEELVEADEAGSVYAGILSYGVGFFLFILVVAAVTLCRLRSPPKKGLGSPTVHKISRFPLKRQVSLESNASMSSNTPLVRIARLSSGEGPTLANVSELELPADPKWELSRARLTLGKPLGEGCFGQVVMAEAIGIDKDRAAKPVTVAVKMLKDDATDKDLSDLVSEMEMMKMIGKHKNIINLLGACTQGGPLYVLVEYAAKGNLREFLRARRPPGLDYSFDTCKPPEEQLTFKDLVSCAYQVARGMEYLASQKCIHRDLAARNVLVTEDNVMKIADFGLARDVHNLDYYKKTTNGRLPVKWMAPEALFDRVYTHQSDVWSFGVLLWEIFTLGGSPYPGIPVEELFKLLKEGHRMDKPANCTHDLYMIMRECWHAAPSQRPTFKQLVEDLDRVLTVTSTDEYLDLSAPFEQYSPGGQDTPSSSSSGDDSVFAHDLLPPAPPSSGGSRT
Grb2 SH2, sequence (P62993 whole entry, looked up): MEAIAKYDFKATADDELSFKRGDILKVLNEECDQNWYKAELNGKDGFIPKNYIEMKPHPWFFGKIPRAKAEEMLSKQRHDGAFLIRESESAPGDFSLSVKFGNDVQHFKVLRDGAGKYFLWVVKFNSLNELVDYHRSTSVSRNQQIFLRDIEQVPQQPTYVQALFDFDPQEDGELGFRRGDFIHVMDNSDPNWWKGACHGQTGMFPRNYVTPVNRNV

Sequence | phosphorylation enrichment (AncSZ) | phosphorylation enrichment (EPHB1) | phosphorylation enrichment (EPHB2) | phosphorylation enrichment (FGFR1) | phosphorylation enrichment (FGFR3) | phosphorylation enrichment (Fer (mouse)) | phosphorylation enrichment (Fes) | phosphorylation enrichment (Fyn) | phosphorylation enrichment (Hck) | phosphorylation enrichment (Jak2) | phosphorylation enrichment (MERTK) | phosphorylation enrichment (c-Abl (mouse)) | phosphorylation enrichment (c-Src) | SH2 binding enrichment (Grb2 SH2) | SH2 binding enrichment (SHP2-C SH2) | SH2 binding enrichment (c-Src SH2)
AAAAMYTFLPD [MYORG_Y36] | 1.26 | 2.82 | 1.46 | 13.5 | 12 | 1 | 1.12 | 1.61 | 4.23 | 1.31 | 10.9 | 1 | 4.45 | 1.12 | 0.744 | 4.32
AAARPYHIQKW [ACSBG1_Y677] | 0.601 | 0.468 | 0.465 | 0.462 | 0.584 | 0.279 | 0.675 | 0.371 | 0.543 | 0.682 | 0.377 | 0.673 | 0.62 | 1.41 | 1.27 | 1.19
AAFNRYDQERF [CDC73_Y293_YF] | 0.665 | 0.402 | 0.473 | 0.394 | 0.504 | 0.463 | 0.856 | 0.469 | 0.397 | 0.609 | 0.398 | 0.684 | 0.427 | 0.866 | 0.549 | 0.448
AAVDEYLEYRR [FAM221A_Y17] | 1.1 | 0.531 | 0.477 | 0.513 | 0.522 | 0.401 | 1 | 0.62 | 0.863 | 1.21 | 0.469 | 0.698 | 0.925 | 0.846 | 1.17 | 0.539
AAVDNYCRHNF [HLA-DRB1_Y107_T106N_YF] | 0.41 | 0.753 | 0.234 | 0.442 | 1.33 | 0.471 | 0.53 | 0.587 | 0.203 | 0.928 | 0.326 | 0.484 | 0.349 | 0.877 | 0.772 | 0.583
AAVLNYKAGRD [GRIN2A_Y737] | 0.461 | 0.352 | 0.33 | 0.382 | 0.379 | 0.342 | 0.482 | 0.397 | 0.322 | 0.469 | 0.41 | 0.389 | 0.432 | 0.835 | 0.44 | 0.447
ADARMYGVHPW [PLP1_Y207_L210H] | 0.604 | 0.458 | 0.493 | 0.38 | 0.481 | 0.355 | 0.726 | 4.81 | 2.42 | 0.521 | 0.391 | 0.53 | 3.64 | 0.653 | 0.477 | 0.465
ADCRYYTFPQM [GAMT_Y223_A224T] | 3.09 | 4.67 | 2.84 | 10.9 | 7.83 | 4.67 | 0.998 | 3.97 | 3.29 | 4.44 | 9.97 | 1.99 | 4.77 | 1.05 | 1.34 | 3.2
ADEEYYEIIAA [FEStide_no-pY_2014] | 3.85 | 1.02 | 0.795 | 9.19 | 7.62 | 5.58 | 1.48 | 2.17 | 2.32 | 1.31 | 1.53 | 1.14 | 2.47 | 0.956 | 0.647 | 1.01
ADKSAYLMGLN [MYH7_Y386] | 0.625 | 0.405 | 0.465 | 0.526 | 0.579 | 0.549 | 0.671 | 0.543 | 0.524 | 0.67 | 0.502 | 0.467 | 0.535 | 0.88 | 0.793 | 0.467
ADLTEYLSTHY [UQCRC1_Y219] | 1.01 | 0.58 | 0.622 | 0.52 | 0.697 | 0.553 | 0.972 | 0.549 | 0.555 | 0.908 | 0.462 | 0.649 | 0.625 | 1.13 | 0.716 | 0.638
ADRTRYSAFGG [RBM4_Y361_A359T] | 0.599 | 0.345 | 0.356 | 0.391 | 0.44 | 0.4 | 0.797 | 0.413 | 0.37 | 0.551 | 0.382 | 0.495 | 0.399 | 0.897 | 1.08 | 0.617
ADYPDCKYRPR [SOX11_Y116_Y116C] | 0.733 | 0.496 | 0.51 | 0.606 | 0.626 | 0.426 | 0.955 | 0.427 | 0.416 | 0.657 | 0.41 | 0.706 | 0.406 | 0.833 | 0.799 | 0.634
ADYYDYGRGLS [KHDRBS3_Y304_H306R] | 3.83 | 15.9 | 17.4 | 17.9 | 15.5 | 1.22 | 0.831 | 6.79 | 7.62 | 6.26 | 3.88 | 0.967 | 4.1 | 0.698 | 6.25 | 0.564
AEQDCYHGAIP [FER_Y461_W460C] | 0.864 | 0.648 | 0.655 | 0.523 | 0.599 | 0.456 | 1.01 | 0.472 | 0.499 | 0.742 | 0.453 | 0.706 | 0.599 | 0.96 | 0.827 | 0.65
AEYGLYRAMVR [VSX2_Y222_G223R] | 0.814 | 2.89 | 3.62 | 0.577 | 0.679 | 0.603 | 0.768 | 9.03 | 9.69 | 0.75 | 2.38 | 7.87 | 6.94 | 0.855 | 0.619 | 0.566
AGITAYQSCLQ [ADGRA2_Y377] | 1.12 | 0.685 | 0.717 | 0.562 | 0.951 | 0.63 | 1.3 | 0.633 | 0.568 | 1.03 | 0.59 | 0.918 | 0.518 | 0.827 | 0.497 | 0.395

Sequence | phosphorylation enrichment (AncSZ) | phosphorylation enrichment (EPHB1) | phosphorylation enrichment (EPHB2) | phosphorylation enrichment (FGFR1) | phosphorylation enrichment (FGFR3) | phosphorylation enrichment (Fer (mouse)) | phosphorylation enrichment (Fes) | phosphorylation enrichment (Fyn) | phosphorylation enrichment (Hck) | phosphorylation enrichment (Jak2) | phosphorylation enrichment (MERTK) | phosphorylation enrichment (c-Abl (mouse)) | phosphorylation enrichment (c-Src) | SH2 binding enrichment (Grb2 SH2) | SH2 binding enrichment (SHP2-C SH2) | SH2 binding enrichment (c-Src SH2)
AGREEYSAMRD [KRAS_Y64_Q61R] | 0.787 | 0.506 | 0.546 | 0.472 | 0.575 | 0.453 | 0.834 | 0.479 | 0.508 | 0.686 | 0.425 | 0.655 | 0.421 | 0.98 | 0.598 | 1.02
AGREIYESDKC [TTN_Y4424] | 0.949 | 0.524 | 0.607 | 0.608 | 0.819 | 0.519 | 0.996 | 0.538 | 0.523 | 0.731 | 0.447 | 0.616 | 0.536 | 1.06 | 1.4 | 1.03
AIMSFYAALIN [RYR1_Y2426_D2431N] | 1.13 | 1.14 | 0.991 | 0.575 | 0.772 | 0.672 | 1.3 | 0.508 | 0.764 | 1.06 | 1.09 | 1 | 0.497 | 0.996 | 1.18 | 0.785
AKLVQYYMEHH [PTPN11_Y80_E76K] | 0.774 | 2.46 | 1.21 | 0.633 | 0.549 | 0.447 | 0.839 | 0.469 | 0.637 | 0.799 | 0.983 | 0.709 | 0.615 | 0.936 | 1.75 | 0.718
AKNKDYMSIIR [GNE_Y197] | 0.585 | 0.851 | 0.553 | 0.432 | 0.585 | 0.473 | 0.677 | 0.409 | 0.483 | 0.706 | 0.468 | 0.676 | 0.452 | 0.9 | 0.879 | 0.774
AKQVGYENAGT [PC_Y304] | 0.633 | 0.511 | 0.446 | 0.394 | 0.549 | 0.461 | 0.614 | 0.439 | 0.464 | 0.467 | 0.432 | 0.447 | 0.433 | 4.11 | 0.646 | 1.19
ALAHKYHGGGG [HBB_Y146] | 0.621 | 0.333 | 0.349 | 0.537 | 0.343 | 0.361 | 0.578 | 0.426 | 0.417 | 0.503 | 0.461 | 0.534 | 0.383 | 0.756 | 0.63 | 0.43
ALAHKYLGGGG [HBB_Y146_H147L] | 0.378 | 0.324 | 0.387 | 0.307 | 0.325 | 0.269 | 0.389 | 0.366 | 0.347 | 0.464 | 0.407 | 0.289 | 0.278 | 1.01 | 0.608 | 0.503
ALTDNYMFLVI [HAGH_Y61_YF] | 1.37 | 8.31 | 6.12 | 7.04 | 5.16 | 2.88 | 1.62 | 0.615 | 0.869 | 1.49 | 1.97 | 1.22 | 0.733 | 0.68 | 0.441 | 0.366
ALVDTYCRHNY [HLA-DRB1_Y107_A103L] | 0.474 | 0.439 | 0.486 | 0.401 | 0.501 | 0.442 | 0.709 | 0.46 | 0.549 | 0.456 | 0.618 | 0.515 | 0.432 | 0.911 | 0.79 | 0.582
ALWFIYLHTRS [ENG_Y614_S615L_YF] | 1.2 | 0.585 | 0.583 | 0.409 | 0.778 | 0.485 | 1.37 | 0.433 | 0.428 | 1.13 | 0.422 | 0.979 | 0.411 | 0.875 | 0.882 | 0.564
APGDAYGDAGY [SYP_Y250] | 0.891 | 0.541 | 0.662 | 0.494 | 0.615 | 0.512 | 0.871 | 0.413 | 0.463 | 0.765 | 0.442 | 0.616 | 0.405 | 0.815 | 0.616 | 0.464
APIEDYGGGGG [B4GALT6_Y382] | 0.872 | 0.649 | 0.599 | 0.523 | 0.697 | 0.505 | 0.965 | 0.566 | 0.509 | 0.794 | 0.461 | 0.661 | 0.449 | 0.702 | 0.627 | 0.501
APQYTYAQGGQ [FLNA_Y1763] | 0.72 | 0.373 | 0.43 | 0.453 | 0.53 | 0.409 | 0.643 | 0.486 | 0.509 | 0.54 | 0.486 | 0.54 | 0.455 | 0.778 | 1.26 | 2.62
AQADIYKADFQ [IKBKG_Y308] | 0.856 | 0.465 | 0.535 | 0.44 | 0.722 | 0.354 | 0.848 | 0.734 | 0.78 | 0.672 | 0.399 | 0.675 | 0.925 | 0.836 | 0.647 | 0.421
AQAERYDDMAA [YWHAG_Y20_E15A] | 0.871 | 0.577 | 0.595 | 0.469 | 0.67 | 0.529 | 0.881 | 0.478 | 0.476 | 0.954 | 0.389 | 0.668 | 0.439 | 0.858 | 0.699 | 2.79
